The text below walks through data of paper PMC11933560.

The target of the assay is mCherry-LHBs (HBV large envelope protein with mCherry at the N-terminus) (Hepatitis B virus) (UniProt P03138). The assay can be described thus: FRET or BRET. (In general: BRET reads energy transfer from a luciferase to a nearby fluorophore.)

Regarding “mCherry-LHBs (HBV large envelope protein with mCherry at the N-terminus) (from UniProt P03138 1-389) (natural protein)”, the FRET efficiency amounted to 35%.
